From publication PMC9355564, “A network of cytosolic (co)chaperones promotes the biogenesis of mitochondrial signal-anchored outer membrane proteins” (eLife, 2022)
Ends that are not written are not given here.

T1: recombinant Sis1 (S. cerevisiae, UniProt P25294 1-352)
T1 construct: Sis1, yeast Hsp40 co-chaperone; also called Hsp40 co-chaperone Sis1; source: recombinantly expressed and purified
T1 sequence (looked up): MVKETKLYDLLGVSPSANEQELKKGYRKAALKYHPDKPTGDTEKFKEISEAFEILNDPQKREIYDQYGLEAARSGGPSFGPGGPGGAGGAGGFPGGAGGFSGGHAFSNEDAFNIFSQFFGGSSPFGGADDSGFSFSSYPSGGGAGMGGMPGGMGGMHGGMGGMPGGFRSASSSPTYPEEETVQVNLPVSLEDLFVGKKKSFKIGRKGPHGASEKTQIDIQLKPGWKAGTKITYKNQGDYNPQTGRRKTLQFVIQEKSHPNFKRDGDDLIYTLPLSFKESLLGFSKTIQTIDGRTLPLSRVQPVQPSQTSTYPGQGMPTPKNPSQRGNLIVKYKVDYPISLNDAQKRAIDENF

T2: GST-Tom20(35-183) (S. cerevisiae, UniProt P35180 35-183)
T2 construct: also called cytosolic domain of Tom20; source: expressed and purified as described earlier (Papić et al., 2013); not shown: GST, N-terminal, kept
T2 sequence (looked up): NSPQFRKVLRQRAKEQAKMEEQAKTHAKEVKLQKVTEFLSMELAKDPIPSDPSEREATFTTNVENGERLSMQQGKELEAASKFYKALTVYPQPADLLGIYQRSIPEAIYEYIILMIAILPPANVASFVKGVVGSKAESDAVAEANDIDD

B1: GST-Tom70(46-617) (domain or fragment, S. cerevisiae, UniProt P07213 46-617, looked up)
chain: KDEKKDTKDSQKETEGAKKSTAPSNPPIYPVSSNGEPDFSNKANFTAEEKDKYALALKDKGNQFFRNKKYDDAIKYYNWALELKEDPVFYSNLSACYVSVGDLKKVVEMSTKALELKPDYSKVLLRRASANEGLGKFADAMFDLSVLSLNGDFNDASIEPMLERNLNKQAMSKLKEKFGDIDTATATPTELSTQPAKERKDKQENLPSVTSMASFFGIFKPELTFANYDESNEADKELMNGLSNLYKRSPESYDKADESFTKAARLFEEQLDKNNEDEKLKEKLAISLEHTGIFKFLKNDPLGAHEDIKKAIELFPRVNSYIYMALIMADRNDSTEYYNYFDKALKLDSNNSSVYYHRGQMNFILQNYDQAGKDFDKAKELDPENIFPYIQLACLAYRENKFDDCETLFSEAKRKFPEAPEVPNFFAEILTDKNDFDKALKQYDLAIELENKLDGIYVGIAPLVGKATLLTRNPTVENFIEATNLLEKASKLDPRSEQAKIGLAQMKLQQEDIDEAITLFEESADLARTMEEKLQAITFAEAAKVQQRIRSDPVLAKKIQETLAKLREQGLM
notes: Tom70, cytosolic domain, residues 46-617; also called cytosolic domain of Tom70; source: expressed and purified as described earlier (Papić et al., 2013); not shown: GST, N-terminal, kept
B2: TAMRA-labeled Mcr1 peptide, residues 1-39 (peptide, UniProt P36060 1-39, looked up)
peptide: MFSRLSRSHSKALPIALGTVAIAAATAFYFANRNQHSFV
modifications: also: TAMRA label, position not given here
notes: Mcr1, residues 1-39, contain the transmembrane segment; synthesis as in Jores et al., 2016; also called Mcr1(TMS); Mcr1-TMS peptide; source: synthetic peptide
B3: TAMRA-labeled Tom70 peptide, residues 1-32 (peptide, UniProt P07213 1-32, looked up)
peptide: MKSFITRNKTAILATVAATGTAIGAYYYYNQL
modifications: also: TAMRA label, position not given here
notes: Tom70, residues 1-32, contain the transmembrane segment; synthesis as in Jores et al., 2016; also called Tom70(TMS); TMS-labelled peptide of Tom70; source: synthetic peptide
B4: Mcr1-3HA (full length) (natural protein, S. cerevisiae, UniProt P36060 1-302, looked up)
chain: MFSRLSRSHSKALPIALGTVAIAAATAFYFANRNQHSFVFNESNKVFKGDDKWIDLPISKIEEESHDTRRFTFKLPTEDSEMGLVLASALFAKFVTPKGSNVVRPYTPVSDLSQKGHFQLVVKHYEGGKMTSHLFGLKPNDTVSFKGPIMKWKWQPNQFKSITLLGAGTGINPLYQLAHHIVENPNDKTKVNLLYGNKTPQDILLRKELDALKEKYPDKFNVTYFVDDKQDDQDFDGEISFISKDFIQEHVPGPKESTHLFVCGPPPFMNAYSGEKKSPKDQGELIGILNNLGYSKDQVFKF
notes: Mcr1, S. cerevisiae, signal-anchored mitochondrial outer membrane protein (Mcr1mom is its outer membrane isoform); also called Mcr1-FL; yk-Mcr1-3HA; source: in vitro translated in yeast extract; not shown: 3HA, C-terminal, kept

Tests used:
[1] = molecular target: T3, Ssa1-Mcr1(TMS) complex (S. cerevisiae, UniProt P10591 1-642; P36060 1-39, Tetramethylrhodamine (TAMRA), position not stated); assay: fluorescence polarisation; fluorescence anisotropy, 2 µM TAMRA-labeled peptide, 30 °C; single additions of 10 µM Ssa1, 30 µM Sis1, 10 µM GST-Tom70, GST, BSA or 1 mM ATP alone or in the indicated order; settings: both partners purified
T3 construct: Ssa1, as m37; Mcr1 residues 1-39, as m36; also called substrate-chaperone complex; Ssa1/substrate complex; source: formed beforehand by adding 10 µM recombinant Ssa1 to 2 µM TAMRA-labeled Mcr1 peptide

[2] = molecular target: B1; assay: as above; settings: both partners purified
[3] = molecular target: T4, recombinant Ssa1 (S. cerevisiae, UniProt P10591 1-642); assay: fluorescence polarisation; fluorescence anisotropy titration, 2 µM TAMRA-labeled peptide with increasing concentrations of Ssa1 or Sis1, 30 °C; Kd from hyperbolic regression of the difference in anisotropy; settings: both partners purified
T4 construct: Ssa1, yeast cytosolic Hsp70 chaperone; also called Hsp70 Ssa1; source: recombinantly expressed and purified

[4] = molecular target: T1, recombinant Sis1; assay: as above; settings: both partners purified
[5] = molecular target: T2, GST-Tom20(35-183); assay: pull-down; purified GST, GST-Tom20 or GST-Tom70 on glutathione sepharose beads blocked with 5% BSA, mixed with cleared in vitro translation reactions (yeast extract) of HA-tagged proteins; ATP added every 30 min; 20 mM Hepes, 100 mM NaCl, 1 mM MgCl2, pH 7.25; anti-HA blot; settings: one partner purified

T4 sequence (P10591 whole entry): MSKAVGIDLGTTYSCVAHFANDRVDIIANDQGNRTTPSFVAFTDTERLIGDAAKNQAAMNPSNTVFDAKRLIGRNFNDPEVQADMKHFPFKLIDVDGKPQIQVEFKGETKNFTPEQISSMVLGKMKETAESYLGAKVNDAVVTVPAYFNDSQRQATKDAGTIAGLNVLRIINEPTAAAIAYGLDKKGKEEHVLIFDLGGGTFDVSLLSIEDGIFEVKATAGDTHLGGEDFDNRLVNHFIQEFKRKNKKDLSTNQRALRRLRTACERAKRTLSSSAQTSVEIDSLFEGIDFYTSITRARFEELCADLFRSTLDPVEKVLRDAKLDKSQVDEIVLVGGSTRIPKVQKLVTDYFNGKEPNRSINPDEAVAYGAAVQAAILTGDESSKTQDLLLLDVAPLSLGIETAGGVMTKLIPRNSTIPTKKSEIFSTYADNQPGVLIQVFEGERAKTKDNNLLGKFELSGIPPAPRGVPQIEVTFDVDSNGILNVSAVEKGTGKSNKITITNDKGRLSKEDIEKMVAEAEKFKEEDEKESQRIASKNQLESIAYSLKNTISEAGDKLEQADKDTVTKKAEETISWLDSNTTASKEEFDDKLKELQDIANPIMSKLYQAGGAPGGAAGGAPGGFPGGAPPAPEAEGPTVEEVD
T3 sequence (P10591 whole entry, the tested form may be a part, one chain of several): as the sequence (P10591 whole entry) above

B1: binds [1].

For B2, the binding result [2] was “binds”, the Kd [3] was 3.27 µM and the Kd [4] was 25.8 µM.

B3 was tested, and the Kd [3] was 2.42 µM and the Kd [4] was 18.3 µM.

With B4 the “fold binding to GST-Tom20 relative to GST-Tom70 (after normalising to GST)” value [5] was 4 fold.
